B1: KLHL20 (parent)
chain: YQDMIYAVGGRDDTTELSSAERYN

Variants of: B1
Test: protein stability index of a GFP-peptide fusion (GPS, HEK-293T) (PSI 1-6); higher = more stable
Settings: c terminus: a fixed tail appended
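Further: lentivirally expressed fusions sorted by FACS into six bins by GFP to DsRed ratio, PSI derived from sequencing read proportions per bin multiplied by bin number.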

Protein stability index, by site and new letter:
S19: V 1.99, Y 1.8, M 2.01, F 2.31, L 2.02, I 2.01, E 2.45, A 2.87, Q 2.25, K 2.34, H 2.33, R 2.53, G 2.32, W 1.99, D 2.43, N 2.11, C 2.16, T 2.54, P 2.66
E16: Y 1.69, G 2.28, C 1.5, L 2.67, K 1.85, F 1.75, A 1.95, V 2.78, M 2.08, Q 2.36, W 2.23, H 2.5, P 2.05, D 2.34, T 2.17, S 1.91, R 2.51, I 2.07, N 2.38
T15: P 2.17, I 2.09, A 2.4, L 2.58, F 2.38, H 2.19, K 2.13, M 1.92, G 2.21, Q 3.13, R 2.08, C 2.49, D 2.49, E 2.44, V 2.08, Y 1.8, S 2.46, N 2.33, W 1.8
E21: H 2.04, T 2.11, I 1.95, D 2.29, S 1.92, P 2.55, A 2, Q 1.95, M 2.75, K 2.37, G 1.94, Y 1.69, C 2.23, W 1.58, N 1.89, R 1.75, F 2.28, L 1.95, V 2.09
L17: R 2.19, H 2.32, S 2.06, Q 2.24, T 2.89, G 2.82, V 2, P 2.49, E 2.58, Y 2.03, C 2.52, K 2.41, M 2.35, D 2.12, F 2.14, I 2.33, N 2.38, W 2.45, A 2.44
Y23: K 2.74, D 2.98, A 1.82, H 2.64, E 2.77, N 2.59, F 2.13, L 2.25, G 2.18, I 1.93, M 2.29, C 2.32
R22: S 2.48, Q 2.77, G 2.87, L 2.15, N 1.92, P 2.69, A 2.45, C 2.52, F 2.48, E 2.53, T 2.18, D 2.49, W 2.56, K 2.08, V 2.52, I 2.16, H 2.38, Y 2.63, M 2.03
A20: G 2.29, C 2.15, K 2.03, E 3.06, N 2.82, P 2.05, M 2.38, H 2.74, F 2.04, L 1.82, D 2.79, T 2.21, R 2.76, S 1.98, Y 1.78, Q 2.91, V 2.41, I 2.05, W 1.66
S18: G 2.5, K 2.25, F 2.63, Q 2.22, E 2.02, I 2.12, T 2.1, Y 2.22, R 1.99, W 2.27, N 2.66, C 2.07, M 2.07, H 2.9, D 2.43, V 2.32, P 2.1, A 2.03, L 2.76
T14: W 1.56, V 2.25, Y 2.1
